One may read the half-life as the time in which the quantity being followed falls by half. A low value points to rapid decline.

Results on 9 molecules are retold here after patent publication US20250296960A1, “PEPTIDE COMPOSITIONS AND METHODS OF USE THEREOF” (priority 2022, published 2025).

Where two headings read alike, the source gives them in different places. Numbered stars: 1 amine (or outer) side, 2 acyl side, 3 side chain; on linkers, the order of the positions; unused ones are H or OH. Square brackets hold non-standard residues; d marks the D form. Primed or numbered codes have the meaning given here. Side chains are listed from the residue outwards. Ends that are not written are not given here. Peptide text beside a SMILES is read from it. * marks the point of attachment. C18 = C18 fatty acid (C16-C22 fatty acids conjugated via γGlu/8-amino-3,6-dioxaoctanoic acid spacers); C18″ = C18 fatty acid moiety (of 2OEG-γGlu-C18, K*); Biotin = O=C1N[C@H]2[C@H](CS[C@H]2CCCCC(=O)*)N1; C18 diacid = O=C(O)CCCCCCCCCCCCCCCCC(=O)*; γGlu = O=C(O)[C@H](CCC(=O)[*:2])N[*:1]; AEEA = NCCOCCOCC(=O)O; Aib = CC(C)(N)C(=O)O

One data set has as its target T1, human GLP-1R (Homo sapiens, UniProt P43220).
T1 construct: host or cells: CHO-K1
Description: cAMP assay (HitHunter cAMP) in GLP-1R-expressing CHO-K1 cells (GLP-1R+ cells). The data set is classed as cell-based. The note with it: Table 31. A digest of the protocol: (§1)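 CHO-K1 cells expressing each receptor were plated overnight, then treated with peptide in cAMP assay buffer for 30 min at 37 °C. cAMP was detected by antibody plus detection solution (1 h) and Solution A (3 h), both at room temperature in the dark. Luminescence was the read-out.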
(Cyclic AMP is a second messenger, typically raised through Gs and lowered through Gi signalling.)

A further data set has as its target T2, human GCGR (Homo sapiens, UniProt P47871).
T2 construct: host or cells: CHO-K1
Kind of data set: cAMP assay (HitHunter cAMP) in GCGR-expressing CHO-K1 cells (GCGR+ cells). The data set is classed as cell-based. Particulars: Table 31. Summed up: as §1

For the next data set, the target named is T3, human GIPR (Homo sapiens, UniProt P48546).
T3 construct: host or cells: CHO-K1
T3 sequence (P48546 22-466): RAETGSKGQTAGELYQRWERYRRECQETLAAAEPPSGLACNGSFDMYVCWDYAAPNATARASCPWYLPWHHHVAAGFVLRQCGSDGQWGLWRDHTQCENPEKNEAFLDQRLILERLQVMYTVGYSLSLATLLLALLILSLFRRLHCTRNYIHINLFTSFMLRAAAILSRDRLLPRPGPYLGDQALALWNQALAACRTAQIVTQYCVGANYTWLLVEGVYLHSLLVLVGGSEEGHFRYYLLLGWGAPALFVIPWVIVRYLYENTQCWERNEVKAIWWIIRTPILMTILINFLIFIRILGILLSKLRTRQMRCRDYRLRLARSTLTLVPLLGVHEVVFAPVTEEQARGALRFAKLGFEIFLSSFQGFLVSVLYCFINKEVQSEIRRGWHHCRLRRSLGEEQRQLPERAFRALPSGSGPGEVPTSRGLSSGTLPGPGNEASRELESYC
Description: cAMP assay (HitHunter cAMP) in GIPR-expressing CHO-K1 cells (GIPR+ cells). The data set is classed as cell-based. Particulars: Table 31. Summed up:
as §1

The nature of data set [1]: In vitro enzymatic stability against FaSSIF/P (pancreatin in FaSSIF, pH 6.5). It is filed as in vitro ADME. The note with it: simulated gi fluid, pH 6.5, Half-life (min). The method, then:
This study was conducted to determine the enzymatic stability of SEQ ID NOs. 77, 86, 87, 89, 90, and 91 after biotinylation in artificial intestinal environment. The test samples were prepared by mixing stock solutions of peptide and pancreatin dissolved in FaSSIF solution (pH 6.5) in a weight ratio of 25:1. The test samples were incubated at 37° C. for 120 min. The sampling from test samples was proceeded at the predetermined time points (10, 30, 60, and 120 min) and stopped by 10% TFA solution.
Analytical HPLC was performed to determine the remaining amount on an ACQUITY Premier system (Waters, USA) with an ACQUITY CSH C18 column (Waters, USA) at 35° C. using 0.1% TFA in water and acetonitrile. The remaining amount was determined as a percentage of the peak area at the sampling time point relative to the peak area of the initial sample.
For the stability against FaSSIF/P, the test samples were prepared by mixing stock solutions of peptide and pancreatin dissolved in FaSSIF solution (pH 6.5) in a weight ratio of 19:1. The test samples were incubated at 37° C. for 120 min. The sampling from test samples was proceeded at the predetermined time points (10, 30, 60, and 120 min) and stopped by 10% TFA solution.

The target in data set [2] is T4, human GLP-1 receptor (GLP-1R), expressed on CHO-K1 cells (human, UniProt P43220 24-463). Kind of data set: cell-based or functional assay.
For data set [3], the target named is T5, human glucagon receptor (GCGR), expressed on CHO-K1 cells (human, UniProt P47871 26-477). Kind of data set: cell-based or functional assay.
In data set [4] the target is T6, human glucose-dependent insulinotropic polypeptide receptor (GIPR), expressed on CHO-K1 cells (human, UniProt P48546 22-466).
T6 sequence (looked up): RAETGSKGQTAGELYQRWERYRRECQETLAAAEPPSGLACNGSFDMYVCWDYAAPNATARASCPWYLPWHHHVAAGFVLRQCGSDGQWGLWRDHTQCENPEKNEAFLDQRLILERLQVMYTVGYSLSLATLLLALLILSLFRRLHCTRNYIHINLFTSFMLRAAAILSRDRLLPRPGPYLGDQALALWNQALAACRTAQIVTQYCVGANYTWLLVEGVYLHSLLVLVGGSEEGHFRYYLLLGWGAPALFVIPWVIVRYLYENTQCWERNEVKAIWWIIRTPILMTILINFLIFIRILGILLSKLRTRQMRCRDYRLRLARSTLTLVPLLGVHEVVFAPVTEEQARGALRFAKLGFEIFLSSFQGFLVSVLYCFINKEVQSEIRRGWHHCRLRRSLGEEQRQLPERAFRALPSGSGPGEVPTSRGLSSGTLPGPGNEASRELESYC
Kind of data set: cell-based or functional assay.

For data set [5], the target named is T4, human GLP-1 receptor (GLP-1R), …. Description: cell-based or functional assay. This is another data set of the same source.
Data set [6] deals with T5, human glucagon receptor (GCGR), …. Description: cell-based or functional assay. This is another data set of the same source.
Data set [7] has as its target T6, human glucose-dependent insulinotropic …. Kind of data set: cell-based or functional assay. The source holds these as a separate data set.
Data set [8] concerns the target T4, human GLP-1 receptor (GLP-1R), …. Kind of data set: cell-based or functional assay. The source holds these as a separate data set.
Data set [9] addresses T5, human glucagon receptor (GCGR), …. Description: cell-based or functional assay. The source holds these as a separate data set.
Data set [10] concerns the target T6, human glucose-dependent insulinotropic …. Description: cell-based or functional assay. This is another data set of the same source.
Data set [11] has as its target T4, human GLP-1 receptor (GLP-1R), …. Kind of data set: cell-based or functional assay. This is another data set of the same source.
In data set [12] the target is T5, human glucagon receptor (GCGR), …. Kind of data set: cell-based or functional assay. The source holds these as a separate data set.
Data set [13] concerns the target T6, human glucose-dependent insulinotropic …. Description: cell-based or functional assay. This is another data set of the same source.

T5 sequence (P47871 26-477): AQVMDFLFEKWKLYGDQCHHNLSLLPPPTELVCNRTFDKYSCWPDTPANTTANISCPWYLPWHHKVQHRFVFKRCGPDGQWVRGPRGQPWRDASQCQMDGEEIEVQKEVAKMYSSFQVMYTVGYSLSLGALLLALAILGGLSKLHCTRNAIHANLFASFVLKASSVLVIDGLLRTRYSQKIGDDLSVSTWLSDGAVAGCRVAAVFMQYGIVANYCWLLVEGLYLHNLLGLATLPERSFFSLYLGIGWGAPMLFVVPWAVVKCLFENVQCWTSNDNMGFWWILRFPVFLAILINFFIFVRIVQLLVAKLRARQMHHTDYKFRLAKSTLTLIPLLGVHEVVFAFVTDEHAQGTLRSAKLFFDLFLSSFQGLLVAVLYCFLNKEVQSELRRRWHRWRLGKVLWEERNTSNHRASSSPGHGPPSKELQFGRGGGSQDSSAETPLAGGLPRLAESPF
T2 sequence (P47871 26-477): as above
T1 sequence (P43220 24-463): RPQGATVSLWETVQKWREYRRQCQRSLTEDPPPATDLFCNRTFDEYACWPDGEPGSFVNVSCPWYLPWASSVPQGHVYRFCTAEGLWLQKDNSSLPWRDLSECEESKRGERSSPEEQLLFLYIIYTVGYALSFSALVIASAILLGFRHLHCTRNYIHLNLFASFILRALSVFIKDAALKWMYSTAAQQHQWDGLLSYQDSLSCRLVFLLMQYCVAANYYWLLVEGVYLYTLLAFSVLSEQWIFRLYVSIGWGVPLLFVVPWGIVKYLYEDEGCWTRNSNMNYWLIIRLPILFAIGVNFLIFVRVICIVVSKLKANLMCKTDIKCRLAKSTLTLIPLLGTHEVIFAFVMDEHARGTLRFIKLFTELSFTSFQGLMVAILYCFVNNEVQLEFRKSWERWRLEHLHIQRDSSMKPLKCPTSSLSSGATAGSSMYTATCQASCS

In the case of `CSCC[C@H](NC(=O)[C@H](CCCCNC(=O)CCCC[C@@H]1SC[C@@H]2NC(=O)N[C@@H]21)NC(=O)[C@H](Cc1ccc(O)cc1)NC(=O)[C@H](CC(=O)O)NC(=O)[C@H](CC(C)C)NC(=O)[C@H](CC(C)C)NC(=O)[C@H](CCCCNC(=O)COCCOCCNC(=O)COCCOCCNC(=O)CC[C@H](NC(=O)CCCCCCCCCCCCCCCCC(=O)O)C(=O)O)NC(=O)[C@H](CO)NC(=O)[C@H](Cc1ccc(O)cc1)NC(=O)[C@H](CC(=O)O)NC(=O)[C@H](CO)NC(=O)[C@@H](NC(=O)[C@H](Cc1ccccc1)NC(=O)[C@@H](NC(=O)CNC(=O)[C@H](CCC(N)=O)NC(=O)C(C)(C)NC(=O)[C@@H](N)Cc1ccc(O)cc1)[C@@H](C)O)[C@@H](C)O)C(=O)N[C@@H](CCC(N)=O)C(=O)NC(C)(C)C(=O)N[C@@H](CC(=O)O)C(=O)N[C@@H](Cc1ccccc1)C(=O)N[C@H](C(=O)N[C@@H](CCC(N)=O)C(=O)N[C@@H](Cc1c[nH]c2ccccc12)C(=O)N[C@@H](CC(C)C)C(=O)N[C@@H](CC(C)C)C(=O)N[C@@H](CCC(=O)O)C(=O)NCC(=O)NCC(=O)N1CCC[C@H]1C(=O)N[C@@H](CO)C(=O)N[C@@H](CO)C(=O)NCC(=O)N[C@@H](C)C(=O)N1CCC[C@H]1C(=O)N1CCC[C@H]1C(=O)N1CCC[C@H]1C(=O)N[C@@H](CO)C(N)=O)C(C)C` [compound 91] (H-Y[Aib]QGTFTSDYSK([AEEA-AEEA-γGlu-C18 diacid])LLDYK(Biotin)MQ[Aib]DFVQWLLEGGPSSGAPPPS-NH2; N-terminus and C-terminus assumed), on human GLP-1R, the “Ratio vs. GLP-1R, GLP-1R” value came out at 100 and the “Relative % to native ligand, GLP-1R” value turned out to be 19%. Also, at human GCGR, the “Ratio vs. GLP-1R, GCGR” value worked out at 135 and the “Relative % to native ligand, GCGR” value came to 26%. Further, on human GIPR, the “Ratio vs. GLP-1R, GIPR” value turned out to be 970 and the “Relative % to native ligand, GIPR” value is reported as 184%. The half-life in data set [1] is 33.3 min.

B1: Peptide No. 5-3 (peptide)
peptide: Y[Aib]QGTFTSDYSKLLDYMMQRDFVQWLLEGGPSSGAPPPSC-NH2
B1: the “Relative % to native ligand” value in data set [2] worked out at 638%; in [3] it was 969%; in data set [4], 7120%. Moreover, the “Ratio vs. GLP-1R” value in data set [5] was 100; in data set [6], 152; in [7], 1120. Also, the “Relative % to non-lipidated peptide” value in data set [8], in data set [9] and in data set [10] was 100% each time.

B2: Peptide No. 5-1F (peptide)
peptide: Y[Aib]QGTFTSDYSKYLDYK([AEEA-AEEA-γGlu-C18″])MARDFVQWLIEGGPSSGAPPPS-NH2
As for B2, the “Relative % to native ligand” value in data set [2] is 61%; in data set [3], 5030%; in [4], 2%. The “Ratio vs. GLP-1R” value was 100 in [5], 8250 in [6] and 3 in data set [7]. Further, the “Relative % to non-lipidated peptide” value in data set [8] was found to be 52%; in data set [9], 76%; in [10] it was 14%.

B3: Peptide No. 5-2D (peptide)
peptide: Y[Aib]QGTFTSDYSK([AEEA-AEEA-γGlu-C18″])YLDYMMQRDFVQWLIEGGPSSGAPPPS-NH2
With B3, the “Relative % to native ligand” value in data set [2] came out at 174%; in data set [3], 3%; in data set [4], 93%. Moreover, the “Ratio vs. GLP-1R” value in [5] stood at 100; in data set [6], 1; in data set [7], 54. Moreover, the figures for the “Relative % to non-lipidated peptide” value in [8], in data set [9] and in data set [10] were 35%, 3% and 13%, respectively.

B4: Peptide No. 5-5D (peptide)
peptide: H[Aib]QGTFTSDYSK([AEEA-AEEA-γGlu-C18″])LLDYMMQRDFVQWLLEGGPSSGAPPPS-NH2
Turning to B4, the entries for the “Relative % to native ligand” value in data set [2], in data set [3] and in [4] were 305%, 2% and 212%, respectively. The “Ratio vs. GLP-1R” value amounted to 100 in [5], 1 in data set [6] and 70 in data set [7]. For the same molecule, the “Relative % to non-lipidated peptide” value in data set [8] was 18%; in data set [9] it was 1%; in [10] it was 40%.

B5: SEQ ID NO. 99 (peptide)
peptide: Y[Aib]QGTFTSDYSK([AEEA-AEEA-γGlu-C18])LLDYMMQHDFVQWLLEGGPSSGAPPPS-NH2
With B5, the “Ratio vs. GLP-1R” value in data set [11] is 100; in data set [12], 80; in [13], 3240. In addition, the “Relative % to native ligand” value in [11] was 35%; in data set [12], 28%; in [13], 1130%.

B6: SEQ ID NO. 100 (peptide)
peptide: Y[Aib]QGTFTSDYSK([AEEA-AEEA-γGlu-C18″])LLDYMMQQDFVQWLLEGGPSSGAPPPS-NH2
On to B6, for which the “Ratio vs. GLP-1R” value in data set [11] came to 100; in [12], 56; in data set [13], 103. Moreover, the “Relative % to native ligand” value amounted to 54% in data set [11], 30% in [12] and 55% in data set [13].

B7: Peptide No. 5-2 (peptide)
peptide: Y[Aib]QGTFTSDYSKYLDYMMQRDFVQWLIEGGPSSGAPPPSC-NH2
On to B7, for which the figures for the “Relative % to native ligand” value in data set [2], in [3] and in data set [4] were 495%, 91% and 738%, respectively. Further, the “Ratio vs. GLP-1R” value in data set [5] was found to be 100; in [6] it was 18; in data set [7] it was 149. For the same molecule, the “Relative % to non-lipidated peptide” value in data set [8], in data set [9] and in data set [10] was 100% throughout.

B8: Peptide No. 5-5 (peptide)
peptide: H[Aib]QGTFTSDYSKLLDYMMQRDFVQWLLEGGPSSGAPPPSC-NH2
For the molecule B8, the “Relative % to native ligand” value in data set [2] came out at 1690%; in data set [3], 260%; in [4], 526%. Moreover, the results for the “Ratio vs. GLP-1R” value in [5], in [6] and in [7] were 100, 15 and 31, respectively. In addition, the “Relative % to non-lipidated peptide” value in data set [8], in [9] and in [10] was 100% in each case.
